The source of these data is US20130224222A1.

In the test the target is thioredoxin (endogenous, mouse mediobasal hypothalamus extracts) (mouse) (UniProt P10639). The experiment in a line: cell-based or functional assay.
Chain of UniProt P10639 (P10639 whole entry): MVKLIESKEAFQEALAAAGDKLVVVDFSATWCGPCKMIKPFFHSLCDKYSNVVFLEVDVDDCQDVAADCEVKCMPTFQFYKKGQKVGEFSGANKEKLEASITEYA

With “human thioredoxin-interacting protein (hTXNIP) (from UniProt Q9H3M7 1-391)”, the thioredoxin activity in the MBH (insulin-reducing assay) (fold decrease) was found to be 2. “thioredoxin-interacting protein (TXNIP), endogenous mouse (from UniProt Q8BG60 1-397)” registered a thioredoxin activity in the MBH (insulin-reducing assay) after TXNIP shRNA knockdown of 50 % increase.
